The values below come from US20200087363A1 (IMMATICS BIOTECHNOLOGIES, published 2020).

The target in this experiment is T1, HLA-B*44:05 (human).
T1 construct: also called peptide-receptive MHC class I molecule
As to the kind of experiment: UV peptide exchange, anti-b2m ELISA. Summed up:
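Peptide-receptive HLA-B*44:05 monomers after UV-induced exchange were diluted 100-fold and captured on streptavidin-coated plates for 1 h at 37 °C. Bound complexes were detected with 2 µg/ml HRP-anti-β2m (1 h, 37 °C) and TMB, read at 450 nm. β2m signal reflects peptide-stabilized complex yield.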

The molecule YEQLLKVVTW registered a peptide exchange yield above 75%.

As to IEYENQKRL, the peptide exchange yield fell in the range of 20 to 50%.

The molecule GELAPSHGL returned a peptide exchange yield of 50 to 75%.

On to SDDLRNVTW, for which the peptide exchange yield was above 75%.

Consider QELSSIRQF, for which the peptide exchange yield lay within 50 to 75%.

Molecule RELLDFSSW registered a peptide exchange yield above 75%.

Molecule SEHLFGTSY displayed a peptide exchange yield of 50 to 75%.

SEADWLRFW came in with a peptide exchange yield above 75%.

Regarding SESSSFLKV, the peptide exchange yield was 50 to 75%.

AEKNRRDAETW had a peptide exchange yield above 75%.

As for SEPQITVNF, the peptide exchange yield lay within 50 to 75%.

The molecule AEQEIMKKV yielded a peptide exchange yield above 75%.

The molecule LEWQNSSSM returned a peptide exchange yield of 50 to 75%.

For QEVNISLHY, the peptide exchange yield was above 75%.

As for REESDWHYL, the peptide exchange yield is 50 to 75%.

The molecule EEPKIDFRVY showed a peptide exchange yield of 50 to 75%.

Turning to EMREERKF, the peptide exchange yield lay in the range of 20 to 50%.

GEDAHLTQY yielded a peptide exchange yield of 20 to 50%.

In turn, DEIRVFGY returned a peptide exchange yield of 20 to 50%.

Take FELECPVKY: the peptide exchange yield is 50 to 75%.

Turning to RRHPSFKRF, the peptide exchange yield fell in the range of 10 to 20%.

For TEFQQIINL, the peptide exchange yield is above 75%.

As to KELEATKQYL, the peptide exchange yield fell in the range of 50 to 75%.

SEGTLPYSY gave a peptide exchange yield of 20 to 50%.

For the molecule SETAVVNVTY, the peptide exchange yield was above 75%.

With EGEDAHLTQY, the peptide exchange yield was 20 to 50%.

The molecule AEPPILYSEY gave a peptide exchange yield of 20 to 50%.

SENKKWVEF returned a peptide exchange yield of 20 to 50%.

AEMKFYVVI registered a peptide exchange yield of 50 to 75%.

Regarding SEQHSLPVF, the peptide exchange yield is 50 to 75%.

SETPTLQGL displayed a peptide exchange yield of 50 to 75%.

The molecule AENPLNIFYI showed a peptide exchange yield of 50 to 75%.

As to VEVIPEGAML, the peptide exchange yield lay in the range of 50 to 75%.

For HELESENKKW, the peptide exchange yield was in the range of 50 to 75%.

As for REYEYDLKW, the peptide exchange yield is above 75%.

In the case of REKDLPNYNW, the peptide exchange yield is above 75%.

The molecule SEFDLEQVW displayed a peptide exchange yield above 75%.

Take AERIMFSDL: the peptide exchange yield was above 75%.

AENPLNIFY showed a peptide exchange yield above 75%.

Molecule NEVKEIKGY had a peptide exchange yield of 50 to 75%.

With KEWEREKAVSL, the peptide exchange yield lay in the range of 50 to 75%.

MEQQSQEY gave a peptide exchange yield of 50 to 75%.

As to RELVHMINW, the peptide exchange yield was above 75%.

Molecule RLWPEPENW gave a peptide exchange yield of 20 to 50%.

RELGFTEATGW: the peptide exchange yield was above 75%.

DEIFTNDRRW had a peptide exchange yield of 20 to 50%.

HENGVLTKF registered a peptide exchange yield of 20 to 50%.

For YEWEPFAEV, the peptide exchange yield fell in the range of 10 to 20%.

Take EEINQGGRKY: the peptide exchange yield was in the range of 50 to 75%.
